What was measured:
[1] = molecular target: pT18c-Zip (leucine zipper fragment encoded by control plasmid pUT18C-zip); assay: two-hybrid; bacterial adenylate cyclase two-hybrid (BACTH) in cya- E. coli BTH101; bait RbaW, preys in pKNT25 or pKT25; β-galactosidase activity (units mg^-1 dry weight) of 3 replicate co-transformants
[2] = molecular target: pT18c-RbaW (RbaW in BACTH vector pUT18c) (Rhodobacter capsulatus); assay: as above

Substance	β-galactosidase activity [1] [units mg^-1]	β-galactosidase activity [2] [units mg^-1]
KT-Zip (leucine zipper fragment encoded by control plasmid pKT25-zip) (domain or fragment)	7340	–
pKNT25-RbaV (RbaV in BACTH vector pKNT25) (natural protein)	–	1440
